Assay results published in US20240058465A1 (SUTRO BIOPHARMA, published 2024).
Changes are numbered by the printed parent chain.

B1: SRP2193-B03 (antibody, IgG1, V domains shown)
VH: EVQLVESGGGLVQPGGSLRLSCAASGFNIRDYYIHWVRQAPGKGLEWVGAIDPVSGSTLFADSVKGRFTISADTSKNTAYLQMNSLRAEDTEVYYCARSRWFRVLWSYVFDYWGQGTLVTVSS
VL: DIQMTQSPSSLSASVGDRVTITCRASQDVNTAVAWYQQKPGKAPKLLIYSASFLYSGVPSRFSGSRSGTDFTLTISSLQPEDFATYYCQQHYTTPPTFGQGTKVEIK
notes: His/FLAG-tagged IgG1, cell-free; also called Antibody 82
B2: SRP2193-E11 (antibody, IgG1, V domains shown)
VH: B1 VH with R30N, A50G, D52E, V54N, S57A, L59V, S71G, E92A, F102Y, D111H
VL: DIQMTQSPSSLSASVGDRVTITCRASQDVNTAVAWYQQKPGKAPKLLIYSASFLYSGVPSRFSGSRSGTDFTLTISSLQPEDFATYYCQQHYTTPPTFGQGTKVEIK
notes: His/FLAG-tagged IgG1, cell-free; also called Antibody 79
B3: SRP2193-E08 (antibody, IgG1, V domains shown)
VH: B1 VH with R30N, D31E, V54H, L59N, E92A, F102Y
VL: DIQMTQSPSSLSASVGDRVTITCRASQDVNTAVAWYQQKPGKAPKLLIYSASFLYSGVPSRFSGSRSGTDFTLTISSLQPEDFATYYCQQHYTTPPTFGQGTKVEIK
notes: His/FLAG-tagged IgG1, cell-free; also called Antibody 87
B4: SRP2193-E03 (antibody, IgG1, V domains shown)
VH: B1 VH with R30T, D31A, Y32S, V54K, S55G, L59R, E92A
VL: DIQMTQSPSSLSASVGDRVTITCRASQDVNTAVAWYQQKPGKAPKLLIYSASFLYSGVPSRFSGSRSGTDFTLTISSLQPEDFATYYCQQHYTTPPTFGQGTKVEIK
notes: His/FLAG-tagged IgG1, cell-free; also called Antibody 98
B5: SRP2193-C04 (antibody, IgG1, V domains shown)
VH: B1 VH with R30N, D31T, Y32S, V54K, L59N, T74A, E92A, F110L
VL: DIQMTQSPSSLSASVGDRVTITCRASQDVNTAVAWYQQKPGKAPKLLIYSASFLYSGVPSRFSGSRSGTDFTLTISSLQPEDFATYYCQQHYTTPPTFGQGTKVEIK
notes: His/FLAG-tagged IgG1, cell-free; also called Antibody 86
B6: SRP2193-E01 (antibody, IgG1, V domains shown)
VH: B1 VH with R30K, D31G, Y32K, V54K, L59A, F60H, E92A, V93A, S107T
VL: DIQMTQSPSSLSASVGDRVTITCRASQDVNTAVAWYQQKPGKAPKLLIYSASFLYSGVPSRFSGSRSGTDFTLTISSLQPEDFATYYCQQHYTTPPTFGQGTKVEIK
notes: His/FLAG-tagged IgG1, cell-free; also called Antibody 120
B7: SRP2193-B04 (antibody, IgG1, V domains shown)
VH: B1 VH with R30S, D31N, Y32S, D52E, V54K, S55N, L59H, F60H, E92A, S107T
VL: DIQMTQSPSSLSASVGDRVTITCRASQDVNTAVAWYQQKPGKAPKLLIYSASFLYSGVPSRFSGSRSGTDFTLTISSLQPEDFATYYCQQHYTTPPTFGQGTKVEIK
notes: His/FLAG-tagged IgG1, cell-free
B8: SRP2193-D10 (antibody, IgG1, V domains shown)
VH: B1 VH with R30N, D31V, Y32S, G49A, A50T, V54N, S57F, L59V, F60H, E92A
VL: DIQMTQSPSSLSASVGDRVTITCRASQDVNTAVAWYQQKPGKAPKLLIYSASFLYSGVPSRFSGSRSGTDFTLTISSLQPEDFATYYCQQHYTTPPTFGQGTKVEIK
notes: His/FLAG-tagged IgG1, cell-free; also called Antibody 92
B9: SRP2194-A01 (antibody, IgG1, V domains shown)
VH: EVQLVESGGGLVQPGGSLRLSCAASGFNITGYYIHWVRQAPGKGLEWVGYISPLAGNTYHADSVKGRFNISADTSKNTAYLQMNSLRAEDTAVYYCARDSRRYVRPMDYWGQGTLVTVSS
VL: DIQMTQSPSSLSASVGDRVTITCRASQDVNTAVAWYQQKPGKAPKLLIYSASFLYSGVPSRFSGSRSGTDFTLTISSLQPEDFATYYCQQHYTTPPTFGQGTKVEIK
notes: as for B7
B10: SRP2196-B08 (antibody, V domains shown)
VH: B9 VH with Y50Q, L54N, A55S, N57Y, H60L, N69T, P106G, M107W
VL: QAVVTQESALTTSPGETVTLTCRSSTGAVTTSNYANWVQEKPDHLFTGLIGGTNKRAPGVPARFSGSLIGDKAALTITGAQTEDEAIYFCALWYSNLWVFGGGTKLTVL
notes: His/FLAG-tagged IgG1
B11: SRP2194-A02 (antibody, IgG1, V domains shown)
VH: B9 VH with N69T, M107F
VL: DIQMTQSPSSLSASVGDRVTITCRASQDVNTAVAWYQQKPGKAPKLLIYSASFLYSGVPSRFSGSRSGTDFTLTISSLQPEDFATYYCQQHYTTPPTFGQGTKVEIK
notes: as for B7
B12: SRP2196-A05 (antibody, V domains shown)
VH: B9 VH with G31N, L54N, A55S, N57A, H60Q, N69T, P106S, M107W
VL: B10 VL
notes: His/FLAG-tagged IgG1
B13: SRP2194-B03 (antibody, IgG1, V domains shown)
VH: B9 VH with G31S, N69T, M107F
VL: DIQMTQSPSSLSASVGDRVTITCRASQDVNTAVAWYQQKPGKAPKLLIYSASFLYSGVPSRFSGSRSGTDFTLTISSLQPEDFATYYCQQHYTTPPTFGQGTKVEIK
notes: as for B7
B14: SRP2196-A03 (antibody, V domains shown)
VH: B9 VH with G31Q, Y33H, L54N, A55S, N57S, Y59H, H60E, N69T, P106G, M107W
VL: B10 VL
notes: His/FLAG-tagged IgG1; also called Antibody 150
B15: SRP2196-A11 (antibody, V domains shown)
VH: B9 VH with Y50Q, L54N, A55S, N57T, H60D, N69T, P106G, M107W
VL: B10 VL
notes: His/FLAG-tagged IgG1
B16: SRP2194-A07 (antibody, IgG1, V domains shown)
VH: B9 VH with I29F, G31D, N69T, M107F
VL: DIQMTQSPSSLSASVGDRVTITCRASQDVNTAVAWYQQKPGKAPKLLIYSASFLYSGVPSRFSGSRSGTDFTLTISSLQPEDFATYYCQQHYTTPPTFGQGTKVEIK
notes: as for B7
B17: SRP2196-A06 (antibody, V domains shown)
VH: B9 VH with Y50Q, L54N, A55S, N57S, Y59H, H60Q, N69T, E89G, P106G, M107W
VL: B10 VL
notes: His/FLAG-tagged IgG1
B18: SRP2196-A04 (antibody, V domains shown)
VH: EVQLVESGGGLVQPGGSLRLSCAASGFNISPYYIHWVRQAPGKGLEWVGQIYPISGHTYQADSVKGRFTISADTSKNTAYLQMNSLRAEDTAVYYCARESRRYVGPFGYWGQGTLVTVSS
VL: B10 VL
notes: His/FLAG-tagged IgG1
B19: SRP2196-A10 (antibody, V domains shown)
VH: B9 VH with L54N, A55S, N57A, Y59H, H60Y, N69T, T74I, Y94H, P106S, M107W
VL: B10 VL
notes: His/FLAG-tagged IgG1
B20: SRP2194-B01 (antibody, IgG1, V domains shown)
VH: B9 VH with T30A, G31S, N69T, M107F
VL: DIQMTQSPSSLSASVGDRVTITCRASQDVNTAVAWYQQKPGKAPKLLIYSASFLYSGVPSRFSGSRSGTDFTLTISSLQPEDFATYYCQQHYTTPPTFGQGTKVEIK
notes: His/FLAG-tagged IgG1, cell-free; also called Antibody 140
B21: SRP2194-A06 (antibody, IgG1, V domains shown)
VH: B9 VH with G31D, N69P, M107F
VL: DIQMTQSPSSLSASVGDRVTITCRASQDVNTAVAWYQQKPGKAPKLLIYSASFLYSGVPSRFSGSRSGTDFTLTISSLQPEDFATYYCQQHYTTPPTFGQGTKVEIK
notes: as for B7
B22: SRP2194-B02 (antibody, IgG1, V domains shown)
VH: B9 VH with T30S, A40T, N69T, M107L
VL: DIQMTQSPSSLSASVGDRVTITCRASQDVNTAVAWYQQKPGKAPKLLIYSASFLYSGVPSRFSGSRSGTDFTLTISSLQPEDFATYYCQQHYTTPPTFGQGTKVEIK
notes: as for B7
B23: SRP2196-A07 (antibody, V domains shown)
VH: B9 VH with Y50Q, L54N, A55S, N57S, H60Y, N69T, N84S, P106G, M107W
VL: B10 VL
notes: His/FLAG-tagged IgG1
B24: SRP2194-B04 (antibody, IgG1, V domains shown)
VH: B9 VH with Y33H, N69T, A97T, M107L
VL: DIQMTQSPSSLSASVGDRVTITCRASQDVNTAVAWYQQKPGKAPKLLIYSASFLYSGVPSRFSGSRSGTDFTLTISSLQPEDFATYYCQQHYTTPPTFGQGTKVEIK
notes: His/FLAG-tagged IgG1, cell-free; also called Antibody 129
B25: SRP2196-A08 (antibody, V domains shown)
VH: B9 VH with L54N, A55S, N57S, H60K, N69T, K76R, P106S, M107W
VL: B10 VL
notes: His/FLAG-tagged IgG1
B26: SRP2194-A04 (antibody, IgG1, V domains shown)
VH: B9 VH with Y59H, N69T, M107L
VL: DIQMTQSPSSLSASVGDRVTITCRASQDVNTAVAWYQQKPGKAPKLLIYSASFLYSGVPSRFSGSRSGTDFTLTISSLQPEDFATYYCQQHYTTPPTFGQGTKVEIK
notes: as for B7

Target: T1, human ROR1 (hROR1) (human, UniProt Q01973 30-937)
T1 construct: On HCT116-hROR1 transfectants, Mino cells or Ntera-2 cells, as the assay of each row says; also called receptor tyrosine kinase like orphan receptor 1
Assay: flow cytometry, HCT116-hROR1 cells
Protocol: A mix of ROR1 positive and negative cells was prepared as follows. Ror1 negative cells were washed 2× in PBS then incubated in PBS containing 1 nM CellTrace™ Oregon Green488® (Life Technologies) at 37° C. for 30 minutes. Cells were then washed 2× with RPMI w/10% fetal calf serum (or FCS), washed 2× with FACS buffer (PBS+0.5% BSA), suspended thoroughly in ice-cold FACS buffer at a final concentration of 4×10^6 cells/ml and kept on ice. ROR1 positive cells were washed 2× in PBS and suspended with ice-cold FACS buffer at 4×10^6 cells/ml. ROR1 positive and negative cells were then mixed to obtain a 1-1 cell suspension and seeded at 50 μl per well on 96 well polypropylene plates. 50 μl of 6-12 point dilutions of anti-ROR1 variants starting from concentrations of ˜100-200 nM antibody was dispensed using BioMekFX (Beckman Coulter) into each well. Cells were then incubated on ice for 1 hr, washed with FACS buffer and incubated for 1 hr on ice with 50 μl FACS buffer containing 2.5 μg/ml Alexa647-conjugated Goat Anti-Human IgG dispensed using BioMekFX (Beckman Coulter). Cells were then washed 2× with FACS buffer and fixed for 10 minutes in 200 μl PBS with 2% PFA prior to fluorescence detection. Samples were acquired using a Beckton Dickinson LSRII FACS. Mean Fluorescence Intensity of ROR1 antibody binding was analyzed using FlowJo® software (Tree Star, Inc.).

Bmax (MFI) | Kd [nM] | Binder
15500 | 0.67 | B1
25400 | 1.33 | B2
15100 | 4.28 | B3
14800 | 0.19 | B4
14900 | 0.18 | B5
17000 | 0.13 | B6
15600 | 0.4 | B7
14800 | 0.64 | B8
9010 | 0.12 | B9
14400 | 0.2 | B10
9220 | 0.14 | B11
14800 | 0.3 | B12
9480 | 0.18 | B13
15400 | 0.3 | B14
14000 | < 0.05 | B15
8770 | 0.41 | B16
14600 | 0.2 | B17
14200 | 0.1 | B18
14400 | 0.3 | B19
8860 | 0.14 | B20
9050 | 0.49 | B21
9330 | 0.15 | B22
14100 | 0.2 | B23
9300 | 0.2 | B24
13900 | 0.2 | B25
9050 | 0.16 | B26

Target: T2, human ROR1 Frizzled domain (hROR1-Fz) (human, UniProt Q01973 165-305)
T2 construct: Acro Biosystems, made in HEK293
Assay: SPR Biacore, IgG on anti-Fc, ROR1-Fz analyte
Protocol: Anti-Fc polyclonal antibodies were immobilized onto a CMS chip (GE Life Sciences) using amine coupling chemistry (from Amine Coupling Kit, GE Life Sciences). The immobilization steps were carried out at a flow rate of 25 μL/min in 1×HBS-EP+buffer (GE Life Sciences; 10× Stock diluted before use). The sensor surfaces were activated for 7 min with a mixture of NHS (0.05 M) and EDC (0.2 M). The Anti-Fc antibodies were injected over all 4 flow cells at a concentration of 25 ug/ml in 10 mM sodium acetate, pH 4.5, for 7 min. Ethanolamine (1 M, pH 8.5) was injected for 7 min to block any remaining activated groups.
Off-rate and kinetic binding experiments were performed at 25° C. using 1×HBS-EP+buffer. Test and control antibodies were injected over the anti-Fc surface at concentrations of 5-10 μg/mL for 12 seconds at a flow rate of 10 μL/min on flow cells 2, 3 and 4, followed by a buffer wash for 30 seconds at the same flow rate. […] After capturing ligand (antibody) on the anti-Fc surface, the analyte (hROR1, Fz or Kr domains, Acro Biosystems, Delaware) was bound for 180 seconds, followed by a 600 second dissociation phase at a flow rate of 50 μL/min. Between each ligand capture and analyte binding cycle, regeneration was carried out using 2 injections of 10 mM Glycine pH 2.0 for 30 seconds at 30 μL/min, followed by a 30 second buffer wash step.

Kd [nM] | koff [s⁻¹] | kon [M⁻¹ s⁻¹] | Binder
2.96 | 0.000505 | 170000 | B1
1.28 | 0.000474 | 370000 | B2
3.96 | 0.000651 | 164000 | B3
1.14 | 0.000294 | 259000 | B4
1.19 | 0.000207 | 173000 | B5
1.06 | 0.000242 | 228000 | B6
0.778 | 0.000134 | 172000 | B7
3.62 | 0.000379 | 105000 | B8
1.07 | 0.000325 | 304000 | B9
3.13 | 0.000488 | 156000 | B10
1.39 | 0.000429 | 308000 | B11
3.9 | 0.000682 | 175000 | B12
1.42 | 0.000295 | 207000 | B13
1.63 | 0.000275 | 169000 | B14
4.16 | 0.000792 | 191000 | B15
1.61 | 0.000275 | 171000 | B16
3.82 | 0.00069 | 180000 | B17
2.46 | 0.000343 | 139000 | B18
2.78 | 0.000479 | 172000 | B19
3.12 | 0.000857 | 274000 | B20
3.75 | 0.00193 | 516000 | B21
2.77 | 0.00071 | 256000 | B22
3.44 | 0.00064 | 186000 | B23
1.44 | 0.000392 | 271000 | B24
4.26 | 0.00078 | 183000 | B25
1.84 | 0.000364 | 198000 | B26
